{
  "source": "patent US20250129156A1",
  "about": "(AKESO BIOPHARMA, published 2025)",
  "key": {"TGF-β1 [1]": {"target": "T1, TGF-β1 (human, UniProt P01137 279-390)", "T1 construct": "Bought protein; also called human TGF-β1; TGF-β1 protein", "assay": "indirect ELISA, TGF-β1 coated at 1 µg/mL"}, "TGF-β2": {"target": "T2, TGF-β2 (UniProt P61812 303-414)", "T2 construct": "Bought protein; also called TGF-β2 protein", "T2 sequence (looked up)": "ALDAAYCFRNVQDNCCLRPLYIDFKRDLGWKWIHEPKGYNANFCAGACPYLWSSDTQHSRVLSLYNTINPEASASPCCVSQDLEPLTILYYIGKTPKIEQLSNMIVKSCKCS", "assay": "indirect ELISA, TGF-β2 coated at 2 µg/mL"}, "TGF-β1 [2]": {"target": "T1, TGF-β1", "assay": "competition ELISA vs TGF-βRII-His-Biotin 0.01 µg/mL on coated TGF-β1"}},
  "data": [
    {"binder": "TGF-βRII-mFc (Fc fusion, UniProt P37173 23-159, looked up, not shown: a dimerising Fc or GST, also called TGF-βR2-mFc) TIPPHVQKSVNNDMIVTDNNGAVKFPQLCKFCDVRFSTCDNQKSCMSNCSITSICEKPQEVCVAVWRKNDENITLETVCHDPKLPYHDFILEDAASPKCIMKEKKKPGETFFMCSCSSDECNDNIIFSEEYNTSNPD", "values": [
      {"measurement": "EC50", "setting": "TGF-β1 [1]", "result": 0.356, "unit": "nM"},
      {"measurement": "EC50", "setting": "TGF-β2", "result": 1.03, "unit": "nM"},
      {"measurement": "EC50", "setting": "TGF-β1 [2]", "result": 6.47, "unit": "nM"}
    ]}
  ]
}
